{
  "source": "patent US20080038777A1",
  "key": {"[1]": {"target": "human C-C chemokine receptor 2B (human) (UniProt P41597)", "sequence (P41597 whole entry)": "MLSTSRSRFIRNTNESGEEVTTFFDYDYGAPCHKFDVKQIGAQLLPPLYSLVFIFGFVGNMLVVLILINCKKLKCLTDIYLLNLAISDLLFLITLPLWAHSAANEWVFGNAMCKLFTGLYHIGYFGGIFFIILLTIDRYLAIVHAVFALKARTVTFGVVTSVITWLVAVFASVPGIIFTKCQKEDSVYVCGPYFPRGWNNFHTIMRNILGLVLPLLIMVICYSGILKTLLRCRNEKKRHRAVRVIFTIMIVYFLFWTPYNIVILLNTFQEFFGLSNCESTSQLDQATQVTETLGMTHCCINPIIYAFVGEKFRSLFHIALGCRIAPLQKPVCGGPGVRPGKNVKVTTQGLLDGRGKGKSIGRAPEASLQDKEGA", "assay": "cell-based or functional assay"}, "[2]": {"target": "dog-human chimeric C-C chemokine receptor 2B (dog-human chimera (synthetic))", "sequence (chain, as listed by the source mutant limits assumed)": "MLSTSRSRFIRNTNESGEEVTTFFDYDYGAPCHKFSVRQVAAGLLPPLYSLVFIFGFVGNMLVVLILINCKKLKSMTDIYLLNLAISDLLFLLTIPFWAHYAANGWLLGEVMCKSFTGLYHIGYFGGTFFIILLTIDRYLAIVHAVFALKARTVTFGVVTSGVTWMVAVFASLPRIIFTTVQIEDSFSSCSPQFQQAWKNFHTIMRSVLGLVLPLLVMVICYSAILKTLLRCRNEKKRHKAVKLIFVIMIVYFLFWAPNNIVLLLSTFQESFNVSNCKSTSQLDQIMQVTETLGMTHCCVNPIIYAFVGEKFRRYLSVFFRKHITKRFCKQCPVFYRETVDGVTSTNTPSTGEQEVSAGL", "assay": "cell-based or functional assay"}},
  "data": [
    {"substance": "canine monocyte chemoattractant protein-1 (from UniProt P52203 24-101) (ligand)", "values": [
      {"measurement": "EC50 of calcium mobilization (FLIPR), THP-1 cells", "setting": "[1]", "value": 53, "unit": "nM"}
    ]},
    {"substance": "mouse monocyte chemoattractant protein-1 (from UniProt P10148 24-148) (ligand)", "values": [
      {"measurement": "EC50 of calcium mobilization (FLIPR), THP-1 cells", "setting": "[1]", "value": 30, "unit": "nM"}
    ]},
    {"substance": "human monocyte chemoattractant protein-1 (from UniProt P13500 24-99) (ligand)", "values": [
      {"measurement": "EC50 of MCP-1-dependent calcium mobilization (FLIPR), CHO-K1 cells expressing the chimeric receptor", "setting": "[2]", "value": 1.5, "unit": "nM"},
      {"measurement": "EC50 of MCP-1 signaling (calcium mobilization, FLIPR) in THP-1 cells", "setting": "[1]", "value": 3, "unit": "nM"},
      {"measurement": "calcium mobilization (FLIPR), THP-1 cells", "setting": "[1]", "value": 8, "unit": "nM"}
    ]}
  ]
}
